Reference: the Human Domainome abundance scans (Beltran et al. 2025)
± gives the uncertainty stated by the source.

B1: Dynamin-binding protein, residues 242 to 304; numbered along this chain, Q6XZF7 (parent)
chain: EEPGTYGVALYRFQALEPNELDFEVGDKIRILATLEDGWLEGSLKGRTGIFPYRFVKLCPDTR

Variants of: B1
Experiment: abundance fitness (aPCA) (normalised: wild type 0, dead -1); higher = more abundant; growth selection in yeast, the domain comes from the species named
Settings: Homo sapiens

Variant	abundance fitness
EEPGTYGVALYRFQALEPNELDFEVGDKIRILATLEDGWLEGSLKGMTGIFPYRFVKLCPDTR [R47M]	-0.689 ± 0.18
EEPGTYGVALYRFQALEPNELDFEVGDKIRILATLEDGWLEGSLKGDTGIFPYRFVKLCPDTR [R47D]	-0.743 ± 0.13
EETGTYGVALYRFQALEPNELDFEVGDKIRILATLEDGWLEGSLKGRTGIFPYRFVKLCPDTR [P3T]	0.126 ± 0.075
EEAGTYGVALYRFQALEPNELDFEVGDKIRILATLEDGWLEGSLKGRTGIFPYRFVKLCPDTR [P3A]	-0.337 ± 0.1
EEWGTYGVALYRFQALEPNELDFEVGDKIRILATLEDGWLEGSLKGRTGIFPYRFVKLCPDTR [P3W]	-0.19 ± 0.29
EEPGTYGVALYRFQALEPNELDFEVGDKIRILATLEDGWLEGSNKGRTGIFPYRFVKLCPDTR [L44N]	-0.567 ± 0.12
EEPGTYGVALYRFQALEPNELDFEVGDKIRILATLEDGWLEGSDKGRTGIFPYRFVKLCPDTR [L44D]	-0.385 ± 0.12
EEPGTYGVALYRFQALEPNELDFEVGDKIRILATLEDGWLEGSMKGRTGIFPYRFVKLCPDTR [L44M]	-0.58 ± 0.28
EEPGTYEVALYRFQALEPNELDFEVGDKIRILATLEDGWLEGSLKGRTGIFPYRFVKLCPDTR [G7E]	-0.209 ± 0.18
EEPGTYGVALYRFQALEPNELDFNVGDKIRILATLEDGWLEGSLKGRTGIFPYRFVKLCPDTR [E24N]	-0.032 ± 0.059
EEPGTYGVALYRFQALEPNELDFIVGDKIRILATLEDGWLEGSLKGRTGIFPYRFVKLCPDTR [E24I]	-0.444 ± 0.083
EEPGTYGVALYRFQALEPNELDFHVGDKIRILATLEDGWLEGSLKGRTGIFPYRFVKLCPDTR [E24H]	-0.199 ± 0.075
EEPGTYGVALYRFQALEPNELDFGVGDKIRILATLEDGWLEGSLKGRTGIFPYRFVKLCPDTR [E24G]	-0.596 ± 0.073
MEPGTYGVALYRFQALEPNELDFEVGDKIRILATLEDGWLEGSLKGRTGIFPYRFVKLCPDTR [E1M]	-0.02 ± 0.17
EEPGTYGVALYRFQALEPNELDFEVGDKIRILATLEDGWLEGSLKGRTGIEPYRFVKLCPDTR [F51E]	-0.854 ± 0.26
EEPGTYGVALYRFQALEPNELDFEVGDKIRILATLEDGWLEGSLKGRTGIFPYRFVCLCPDTR [K57C]	-0.406 ± 0.054
EEPGTYGVALYRFQALEPNELDFEVGDKIRILATLEDGWLEGSLKGRTGIFPYRFVVLCPDTR [K57V]	-0.637 ± 0.068
EEPGTYGVALYRFQALEPNELDFEVGDKIRILATLEDGWLEGSLKGRTGIFPYRFVALCPDTR [K57A]	-0.318 ± 0.072
EEPGTYGVALYRFQALEPNELDFEVGDKIRILATLEDGWLEGSLKGRTGIFPYRFVWLCPDTR [K57W]	-0.677 ± 0.16
EEPGTYGVALYRWQALEPNELDFEVGDKIRILATLEDGWLEGSLKGRTGIFPYRFVKLCPDTR [F13W]	-0.483 ± 0.23
EEPGTYGVALYRFQASEPNELDFEVGDKIRILATLEDGWLEGSLKGRTGIFPYRFVKLCPDTR [L16S]	0.29 ± 0.048

Variant	abundance fitness
EEPGTYGWALYRFQALEPNELDFEVGDKIRILATLEDGWLEGSLKGRTGIFPYRFVKLCPDTR [V8W]	-0.738 ± 0.2
EEPGTYGAALYRFQALEPNELDFEVGDKIRILATLEDGWLEGSLKGRTGIFPYRFVKLCPDTR [V8A]	-0.691 ± 0.13
EEPGTYGVALYRFQALEPNELDFEVGDKVRILATLEDGWLEGSLKGRTGIFPYRFVKLCPDTR [I29V]	-0.533 ± 0.072
EEPGTYGVALYRFQALEPNELDFELGDKIRILATLEDGWLEGSLKGRTGIFPYRFVKLCPDTR [V25L]	-0.933 ± 0.13
EEPGTYGVALYRFQALEPNELDFESGDKIRILATLEDGWLEGSLKGRTGIFPYRFVKLCPDTR [V25S]	-0.448 ± 0.061
EEPGTYGVALYRFQALEPNEGDFEVGDKIRILATLEDGWLEGSLKGRTGIFPYRFVKLCPDTR [L21G]	-0.96 ± 0.13
EEPGTYGVALYRFQALEPNEMDFEVGDKIRILATLEDGWLEGSLKGRTGIFPYRFVKLCPDTR [L21M]	-0.852 ± 0.32
EEPGTYGVALYRFQALWPNELDFEVGDKIRILATLEDGWLEGSLKGRTGIFPYRFVKLCPDTR [E17W]	-0.488 ± 0.14
EEPGTYGVALYRFQALKPNELDFEVGDKIRILATLEDGWLEGSLKGRTGIFPYRFVKLCPDTR [E17K]	0.391 ± 0.091
EEPGTYGVALYRFQALAPNELDFEVGDKIRILATLEDGWLEGSLKGRTGIFPYRFVKLCPDTR [E17A]	0.029 ± 0.059
EEPGTYGVALYRFQALEPNELDFEVGDKIRILATLEDGWLEGSLKGRTGIFPYRFNKLCPDTR [V56N]	-0.711 ± 0.11
EEPGTYGVALYRFQALEPNELDFEVGDKIRILATLEDGWLEGSLKGRTGIFPYRFWKLCPDTR [V56W]	-0.826 ± 0.33
EEPGTYGVALYRFQALEPNELDFEVGDKIRILATLEDGWLEGSLKGRTGIFPYRFTKLCPDTR [V56T]	-0.594 ± 0.087
EEPGTYGVALYRFQALEPNELDFEVGDKIRILATLEDGWLEGSLKGRTGIFPYRFRKLCPDTR [V56R]	-0.887 ± 0.14
EEPGTYGVALYRFQALEPNELDFEVGDKIRILPTLEDGWLEGSLKGRTGIFPYRFVKLCPDTR [A33P]	-0.429 ± 0.24
EEPGTYGVALYRFQALEPNELDFEVGDKIRILATLEDGWLEGSLKGRTGIFPYRDVKLCPDTR [F55D]	-0.621 ± 0.051
EEPGTYGVALYRFQALEPNELDFEVGDKIRILATLEHGWLEGSLKGRTGIFPYRFVKLCPDTR [D37H]	-0.274 ± 0.078
EEPGTYGVALYRFQALEPNELDFEVGDKIRILATLEGGWLEGSLKGRTGIFPYRFVKLCPDTR [D37G]	-0.073 ± 0.054
EEPGTYGVALYRFQALEPNELDFEVGDKIRILATLEDGWLEGSLKGRTGIFPQRFVKLCPDTR [Y53Q]	0.154 ± 0.18
EEPGTYGVALYRFQALEPNELDFEVGDKIRILATLEDGWLEGSLKGRTGIFPIRFVKLCPDTR [Y53I]	0.048 ± 0.055
EEPGTYGVALYRFQALEPNELDFEVGDKIRILATLEDGWLEGSLKGRTGIFPYRFVKLCRDTR [P60R]	-0.245 ± 0.063
